T1: wild-type IL-17RC (wtIL-17RC) (human, UniProt Q8NAC3 21-538, limits assumed)
T1 construct: also called IL-17RC wild type
T1 sequence (looked up): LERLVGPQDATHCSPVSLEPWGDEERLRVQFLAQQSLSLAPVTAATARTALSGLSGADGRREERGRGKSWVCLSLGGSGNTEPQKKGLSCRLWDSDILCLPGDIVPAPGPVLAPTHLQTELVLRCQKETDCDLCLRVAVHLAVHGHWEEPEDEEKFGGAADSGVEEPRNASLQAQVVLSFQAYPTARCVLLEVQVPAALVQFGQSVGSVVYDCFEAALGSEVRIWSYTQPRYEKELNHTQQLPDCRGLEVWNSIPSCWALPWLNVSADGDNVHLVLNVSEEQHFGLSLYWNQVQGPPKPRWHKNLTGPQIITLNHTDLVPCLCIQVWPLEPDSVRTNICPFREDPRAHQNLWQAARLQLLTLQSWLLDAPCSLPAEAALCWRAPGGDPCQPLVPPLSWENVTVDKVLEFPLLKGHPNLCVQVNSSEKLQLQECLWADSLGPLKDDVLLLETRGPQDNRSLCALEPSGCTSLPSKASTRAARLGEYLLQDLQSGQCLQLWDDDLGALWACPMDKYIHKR

B1: T1-T4-14 (Fc fusion)
chain: LRLLDHRAPVCSQPGLNCTVKNSDCLDDSWIHPRNLTPSSPKDLQIQLHFAHTQQGDLVPVAHIEWTLQTDASILYLEGAELSVLQLDTNERLCVRFEFLSKLRHHHRRWRFTFSHFVVDPGQEYEVTVHHLPKPIPDGDPNHQSKNFLVPDCEHPRMKVTTPCMSSALPWLNVSADGDNVHLVLNVSEEQHFGLSLYWNQVQGPPKPRWHKNLTGPQIITLNHTDLVPCLCIQVWPLEPDSVRTNICPFREDPRAHQNLWQAARLRLLTLQSWLLDAPCSLPAEAALCWRAPGGDPCQPLVPPLSWENVTVDKVLEFPLLKGHPNLCVQVNSSEKLQLQECLWADSLGPLKDDVLLLETRGPQDNRSLCALEPSGCTSLPSKASTRAARLGEYLLQDLQSGQCLQLWDDDLGALWACPMDKYIHKTGIEGRMDRNTGRGGEEKKKEKEKEEQEERETKTPECPSHTQPLGVFLFPPKPKDTLMISRTPEVTCVVVDVSQEDPEVQFNWYVDGVEVHNAKTKPREEQFNSTYRVVSVLTVLHQDWLNGKEYKCKVSNKGLPSSIEKTISKAKGQPREPQVYTLPPSQEEMTKNQVSLTCLVKGFYPSDIAVEWESNGQPENNYKTTPPVLDSDGSFFLYSRLTVDKSRWQEGNVFSCSVMHEALHNHYTQKSLSLSLGKGGGGSGGGGSGGGGSLELPAQVAFTPYAPEPGSTCRLREYYDQTAQMCCAKCPPGQHAKVFCTKTSDTVCDSCEDSTYTQLWNWVPECLSCSSRCSSDQVETQACTREQNRICTCRPGWYCALSKQEGCRLCAPLSKCRPGFGVARPGTETSDVVCKPCAPGTFSNTTSSTDICRPHQICSVVAIPGNASMDAVCTSTSPTRSMAPGAVHLPQPVSTRSQHTQPTPGPSTAPSTSILLPMGPSPPAEGSTGD
notes: also called T1c-Fc-T4g; IL-17RA/RC-Fc-TNFR2 (T1-T4-14)
B2: T1-T4-14 produced in pcDNA3.4 (Fc fusion)
chain: B1 chain
notes: Same named protein as T1-T4-14 but expressed from the pcDNA3.4 vector; also called IL-17RA/RC-Fc-TNFR2
B3: T1-T4-14+GT6 (glycan sialylated T1-T4-14) (Fc fusion)
chain: B1 chain
modifications: glycan sialylation (co-expressed with B4GALT6, fed with UMnG and ManNAc)
notes: Same polypeptide as T1-T4-14, with increased sialylation; also called T1-T4-14 produced in pcDNA3.4+GT6; glycan sialylated IL-17RA/RC-Fc-TNFR2
B4: T1-T4-30 (Fc fusion)
chain: B1 chain with A729S, P732S, S815R, S860N, G906E, I915F
B5: T1-T4-13 (Fc fusion)
chain: B1 chain with S771G
notes: also called T1c-Fc-T4f; IL-17RA/RC-Fc-TNFR2
B6: T1-T4-06 (Fc fusion)
chain: B1 chain with P156A, A729S, P732S, S771G, S815R, S860N, G906E, I915F
notes: also called T1b-Fc-T4wt; IL-17RA/RC-Fc-TNFR2
B7: T1-T4-12 (Fc fusion)
chain: B1 chain with S771G, I915F
notes: also called T1c-Fc-T4e; IL-17RA/RC-Fc-TNFR2
B8: T1-T4-07 (Fc fusion)
chain: B1 chain with A729S, P732S, S771G, S815R, S860N, G906E, I915F
notes: also called T1c-Fc-T4wt; IL-17RA/RC-Fc-TNFR2
B9: T1-T4-31 (Fc fusion)
chain: B1 chain with M484Y, S486T, T488E
notes: also called T1c-Fca-T4g; IL-17RA/RC-Fc-TNFR2
B10: T1-T4-32 (Fc fusion)
chain: B1 chain with H665K, N666F
notes: also called T1c-Fcb-T4g; IL-17RA/RC-Fc-TNFR2
B11: T1-T4-11 (Fc fusion)
chain: B1 chain with S771G, G906E, I915F
notes: also called T1c-Fc-T4d; IL-17RA/RC-Fc-TNFR2
B12: T1-T4-08 (Fc fusion)
chain: B1 chain with P732S, S771G, S815R, S860N, G906E, I915F
notes: also called T1-T4-8; T1c-Fc-T4a
B13: T1-T4-09 (Fc fusion)
chain: B1 chain with S771G, S815R, S860N, G906E, I915F
notes: also called T1-T4-9; T1c-Fc-T4b
B14: T1-T4-10 (Fc fusion)
chain: B1 chain with S771G, S860N, G906E, I915F
notes: also called T1c-Fc-T4c; IL-17RA/RC-Fc-TNFR2
B15: human IL-17F (IL-17FF homodimer) (ligand, UniProt Q96PD4 31-163, looked up)
chain: RKIPKVGHTFFQKPESCPPVPGGSMKLDIGIINENQRVSMSRNIESRSTSPWNYTVTWDPNRYPSEVVQAQCRNLGCINAQGKEDISMNSVPIQQETLVVRRKHQGCSVSFQLEKVLVTVGCTCVTPVIHHVQ
notes: also called hIL-17F; hIL-17FF

Residue numbers refer to the chain shown, from its start.

T3 sequence (P01375 77-233 limits assumed): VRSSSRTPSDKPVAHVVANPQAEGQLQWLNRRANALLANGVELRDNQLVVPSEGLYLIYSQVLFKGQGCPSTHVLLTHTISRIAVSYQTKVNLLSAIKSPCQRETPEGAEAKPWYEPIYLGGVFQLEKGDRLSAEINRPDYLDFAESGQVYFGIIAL

For the first assay, the target named is T2, human IL-17A (IL-17AA homodimer) (human, UniProt Q16552 20-155, limits assumed).
T2 construct: also called hIL-17A; hIL-17AA
T2 sequence (Q16552 20-155 limits assumed): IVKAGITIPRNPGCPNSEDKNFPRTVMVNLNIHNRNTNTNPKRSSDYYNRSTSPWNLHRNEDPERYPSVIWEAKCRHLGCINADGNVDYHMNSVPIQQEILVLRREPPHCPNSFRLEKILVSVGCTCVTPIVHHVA
In words: ELISA.
In turn, B1 came in with an EC50 of 0.0752 µg/mL.
Still for that read-out and setting: for B2 the value was 0.0607 µg/mL; for B3, 0.0543 µg/mL.

The next assay addresses B15. The assay can be described thus: ELISA.
Molecule B1 showed an EC50 of 0.0702 µg/mL.
The same measure, in the same setting: for B2 the value was 0.0455 µg/mL; for B3, 0.0621 µg/mL.

Another assay concerns the target T3, human TNFα (human, UniProt P01375 77-233).
T3 construct: also called hTNFα
The assay can be described thus: ELISA.
With B1, the midpoint of the response, the EC50, lay at 0.068 µg/mL.
The same measure, in the same setting: for B2 the value was 0.0873 µg/mL; for B3, 0.0443 µg/mL.

For another assay, the target named is T2, human IL-17A (IL-17AA homodimer). The assay can be described thus: cell-based or functional assay.
Take B1: the “IC50 (ng/mL) of hIL-17A, SEAP reporter assay in HEK-Blue IL-17 cells” value (shortened to “IC50 (ng/mL) of hIL-17A”) amounted to 20.9 ng/mL.
For B4, the “IC50 (ng/mL) of hIL-17A” value was 23.7 ng/mL.
Regarding B5, the “IC50 (ng/mL) of hIL-17A” value amounted to 26.9 ng/mL.
On the same count and under the same terms, with B6 the figure was 24.7 ng/mL.
Same read-out and setting: for B7 the value was 19.9 ng/mL; for B8, 24.4 ng/mL.
Same read-out and setting: with B9 the figure was 15.3 ng/mL; with B10, 20.5 ng/mL.

The target of the next assay is B15. The assay can be described thus: cell-based or functional assay.
Regarding B1, the “IC50 (ng/mL) of hIL-17F, SEAP reporter assay in HEK-Blue IL-17 cells” value was determined as 1150 ng/mL.
The same measure, in the same setting: with B4 the figure was 1030 ng/mL; with B6, 2230 ng/mL.
For the molecule B8, the “IC50 (ng/mL) of hIL-17F, SEAP reporter assay in HEK-Blue IL-17 cells” value stood at 2740 ng/mL.
Still for that read-out and setting: for B9 the value was 1240 ng/mL.
On the same count and under the same terms, for B10 the value was 1260 ng/mL.

The target of the next assay is T3, human TNFα. In words: cell-based or functional assay.
Consider B1, for which the “IC50 (ng/mL) of hTNFα, SEAP reporter assay in HEK-Blue TNFα cells” value worked out at 14.9 ng/mL.
Still for that read-out and setting: with B5 the figure was 138 ng/mL; with B6, 249 ng/mL.
For B7, the “IC50 (ng/mL) of hTNFα, SEAP reporter assay in HEK-Blue TNFα cells” value turned out to be 116 ng/mL.
On the same count and under the same terms, for B8 the value was 354 ng/mL.

Another assay addresses T2, human IL-17A (IL-17AA homodimer). In words: ELISA, cytokine coated on plate, binder titrated, HRP secondary antibody.
B1: a half-maximal response (EC50) required 0.00924 µg/mL.
On to B11, for which a half-maximal effect (EC50) was put at 0.0106 µg/mL.
Same read-out and setting: with B5 the figure was 0.0092 µg/mL; with B6, 0.0103 µg/mL; with B7, 0.00841 µg/mL.
B12 returned an EC50 of 0.0126 µg/mL.
Still for that read-out and setting: with B8 the figure was 0.00706 µg/mL; with B13, 0.0087 µg/mL.
The same measure, in the same setting: for B14 the value was 0.0106 µg/mL.

A further assay deals with B15. Described as above.
B1: it took 0.13 µg/mL to reach a half-maximal effect (EC50).
In the case of B8, the EC50 turned out to be 0.183 µg/mL.
In the case of B9, the EC50 turned out to be 0.0853 µg/mL.

A further assay concerns the target T3, human TNFα. The assay is described as above.
B1 gave an EC50 of 0.0438 µg/mL.
The same measure, in the same setting: for B6 the value was 0.0233 µg/mL; for B8, 2.04 µg/mL; for B9, 0.0627 µg/mL.
With B10, the concentration giving a half-maximal response (EC50) stood at 0.0406 µg/mL.

Another assay addresses T1, wild-type IL-17RC (wtIL-17RC). In words: binding affinity analysis of Table 12 (Octet BLI as described in Example 5).
Take B15: binding was put at a Kd of 4 nM.

The values above are taken from patent EP4682164A1 (Curogen Technology Co., Ltd., dated 2026).
